Measurements taken from US20060084157A1.
One block for each molecule: values may come before it.

Legend:
[1] = biological target: Purified Fe-hydrogenase HydA of Scenedesmus obliquus (native enzyme) (Scenedesmus obliquus); assay: cell-based or functional assay
[2] = biological target: ferredoxin (source not stated, Table I)

Chain of Purified Fe-hydrogenase HydA of Scenedesmus obliquus (native enzyme) (Scenedesmus obliquus) (chain, as listed by the source): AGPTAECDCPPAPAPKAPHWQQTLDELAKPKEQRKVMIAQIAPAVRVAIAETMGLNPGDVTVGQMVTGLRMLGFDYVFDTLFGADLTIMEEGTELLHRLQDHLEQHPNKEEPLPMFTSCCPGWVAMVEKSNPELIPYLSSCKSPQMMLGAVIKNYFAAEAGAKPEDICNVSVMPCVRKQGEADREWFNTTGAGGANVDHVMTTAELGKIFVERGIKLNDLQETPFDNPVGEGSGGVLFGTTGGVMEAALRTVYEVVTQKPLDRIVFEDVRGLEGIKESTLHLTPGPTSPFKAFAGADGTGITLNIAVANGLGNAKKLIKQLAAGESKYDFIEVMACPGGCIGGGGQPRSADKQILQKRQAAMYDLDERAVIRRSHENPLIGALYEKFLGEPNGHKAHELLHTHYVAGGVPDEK

Molecule: Spinach ferredoxin (PetF) (from UniProt P00221 51-147)
H2-evolving activity (in vitro, dithionite as reducing reagent) [1]: 350 U/mg protein

B1: Fe-hydrogenase HydA of Chlamydomonas reinhardtii (native mature enzyme) (protein)
chain: AAPAAEAPLSHVQQALAELAKPKDDPTRKHVCVQVAPAVRVAIAETLGLAPGATTPKQLAEGLRRLGFDEVFDTLFGADLTIMEEGSELLHRLTEHLEAHPHSDEPLPMFTSCCPGWIAMLEKSYPDLIPYVSSCKSPQMMLAAMVKSYLAEKKGIAPKDMVMVSIMPCTRKQSEADRDWFCVDADPTLRQLDHVITTVELGNIFKERGINLAELPEGEWDNPMGVGSGAGVLFGTTGGVMEAALRTAYELFTGTPLPRLSLSEVRGMDGIKETNITMVPAPGSKFEELLKHRAAARAEAAAHGTPGPLAWDGGAGFTSEDGRGGITLRVAVANGLGNAKKLITKMQAGEAKYDFVEIMACPAGCVGGGGQPRSTDKAITQKRQAALYNLDEKSTLRRSHENPSIRELYDTYLGEPLGHKAHELLHTHYVAGGVEEKDEKK
KM value (ferredoxin) [2]: 35 µM

Now from value to molecule:

H2-evolving activity (in vitro, dithionite as reducing reagent) [1]: 390 U/mg protein
Molecule: Ferredoxin (PetF) of Chlamydomonas reinhardtii (from UniProt P07839 33-126)

H2-evolving activity (in vitro, dithionite as reducing reagent) [1]: 420 U/mg protein
Molecule: Ferredoxin (PetF) of Scenedesmus obliquus
